Reference: patent US20070231324A1

Biological target: CD20 (human) (UniProt P11836)
Assay: FACS staining of Ramos, Daudi, Raji and BJAB B lymphoma cells

Sequence of UniProt P11836 (P11836 whole entry): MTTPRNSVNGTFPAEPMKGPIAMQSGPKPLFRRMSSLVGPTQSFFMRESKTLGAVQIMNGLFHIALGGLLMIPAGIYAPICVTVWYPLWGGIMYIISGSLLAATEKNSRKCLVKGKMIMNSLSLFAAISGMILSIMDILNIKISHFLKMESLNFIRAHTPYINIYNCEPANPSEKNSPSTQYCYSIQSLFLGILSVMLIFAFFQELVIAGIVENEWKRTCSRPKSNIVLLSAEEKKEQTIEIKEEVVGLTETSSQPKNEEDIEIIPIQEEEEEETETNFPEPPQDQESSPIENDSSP

mean fluorescence shift: 5 to 15 units
Substance: RITUXAN® (rituximab), monoclonal antibody specific for CD20
